{
  "source": "patent US7211424B1",
  "about": "“Mammalian Subtilisin/kexin isozyme SKI-1: a proprotein convertase with a unique cleavage specificity” (Institut de Recherches Cliniques de Montreal, priority 1999, dated 2007)",
  "key": {"[1]": {"target": "T1, BTMD-SKI-1 (Homo sapiens, UniProt Q14703)", "T1 sequence (Q14703 187-997 limits assumed)": "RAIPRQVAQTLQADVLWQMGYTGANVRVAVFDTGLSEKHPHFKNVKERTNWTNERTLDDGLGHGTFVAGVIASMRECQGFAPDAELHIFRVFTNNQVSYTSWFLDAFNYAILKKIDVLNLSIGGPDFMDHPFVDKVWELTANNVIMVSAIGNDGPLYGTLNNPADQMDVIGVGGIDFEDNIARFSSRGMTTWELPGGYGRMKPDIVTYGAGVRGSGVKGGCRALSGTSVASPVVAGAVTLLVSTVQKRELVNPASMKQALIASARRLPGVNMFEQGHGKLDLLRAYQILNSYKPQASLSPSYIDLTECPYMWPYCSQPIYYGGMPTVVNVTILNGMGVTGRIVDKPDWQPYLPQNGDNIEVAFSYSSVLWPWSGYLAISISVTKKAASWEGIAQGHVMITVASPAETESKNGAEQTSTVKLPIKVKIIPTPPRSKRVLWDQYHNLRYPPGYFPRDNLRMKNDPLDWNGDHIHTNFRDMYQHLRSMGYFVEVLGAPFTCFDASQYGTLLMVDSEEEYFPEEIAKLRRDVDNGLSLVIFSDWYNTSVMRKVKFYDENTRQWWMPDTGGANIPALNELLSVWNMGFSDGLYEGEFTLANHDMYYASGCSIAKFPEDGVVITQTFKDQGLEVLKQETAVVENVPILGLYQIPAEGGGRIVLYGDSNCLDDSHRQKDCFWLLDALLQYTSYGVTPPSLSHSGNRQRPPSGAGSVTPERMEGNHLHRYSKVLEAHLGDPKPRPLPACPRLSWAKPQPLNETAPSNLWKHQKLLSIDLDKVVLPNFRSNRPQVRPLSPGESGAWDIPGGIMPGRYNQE", "T1 sequence (Q14703 17-137 partner limits assumed)": "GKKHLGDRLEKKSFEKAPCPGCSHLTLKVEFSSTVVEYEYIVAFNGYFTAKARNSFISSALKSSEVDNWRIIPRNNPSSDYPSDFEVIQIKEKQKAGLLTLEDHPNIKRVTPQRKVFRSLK", "assay": "biochemical", "format": "biochemical"}, "[2]": {"target": "T2, SKI-1 (Homo sapiens, UniProt Q14703)", "T2 sequence (Q14703 187-998 limits assumed)": "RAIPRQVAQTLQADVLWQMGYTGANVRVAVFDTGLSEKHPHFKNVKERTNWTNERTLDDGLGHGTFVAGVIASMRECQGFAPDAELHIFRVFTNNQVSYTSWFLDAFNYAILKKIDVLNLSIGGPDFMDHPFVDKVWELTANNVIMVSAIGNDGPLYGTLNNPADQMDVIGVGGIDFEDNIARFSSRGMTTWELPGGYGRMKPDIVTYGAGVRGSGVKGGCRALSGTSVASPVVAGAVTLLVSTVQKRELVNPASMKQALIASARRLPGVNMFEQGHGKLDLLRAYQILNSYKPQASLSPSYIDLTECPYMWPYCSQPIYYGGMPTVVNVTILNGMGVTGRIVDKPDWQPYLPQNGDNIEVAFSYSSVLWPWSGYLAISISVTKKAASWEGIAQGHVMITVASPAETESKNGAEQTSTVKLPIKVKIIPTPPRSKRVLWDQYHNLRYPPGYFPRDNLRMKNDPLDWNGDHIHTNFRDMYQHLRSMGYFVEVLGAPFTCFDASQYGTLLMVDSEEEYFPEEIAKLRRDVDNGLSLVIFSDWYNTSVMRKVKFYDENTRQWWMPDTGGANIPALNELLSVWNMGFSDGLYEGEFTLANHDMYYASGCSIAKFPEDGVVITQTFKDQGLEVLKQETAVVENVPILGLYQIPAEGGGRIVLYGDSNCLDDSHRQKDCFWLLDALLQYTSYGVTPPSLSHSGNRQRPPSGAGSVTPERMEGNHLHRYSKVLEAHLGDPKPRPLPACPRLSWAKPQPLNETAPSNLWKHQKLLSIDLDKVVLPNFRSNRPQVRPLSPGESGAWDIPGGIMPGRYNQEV", "format": "biochemical", "conditions": "overnight 37° C., pH 6.0; PMSF 0.5 mM + pAPMSF 50 μM, o-phenanthroline 5 mM, EDTA 10 mM"}, "[3]": {"target": "T3, shed-hSKI-1 (Homo sapiens, UniProt Q14703)", "T3 construct": "SKI-1 is further processed to remove the transmembrane domain that keeps it integrated in the ER membrane, which generates a SKI-1 soluble form; made in house; host or cells: HK293 cells stably transfected with full-length hSKI-1 in pcDNA3; shed enzyme in the medium", "assay": "Hydrolysis of quenched fluorogenic substrates by shed-hSKI-1", "format": "biochemical", "conditions": "in the presence of 10 mM EDTA", "method": "For digestions, each peptide was typically reacted at 37° C. with 10 μl of the concentrated enzyme preparation in a buffer consisting of 50 mM HEPES (N-2-Hydroxyethyl piperazine-N′-2 EthaneSulfonic acid) (ICN Biomedicals Inc), 50 mM MES (2-[N-Morpholino] EthaneSulfonic acid) (Sigma Chem Co.), and 3 mM Ca^2+-acetate (pH 6.5). The digestion products were separated by RP-HPLC on a Beckman 5 μm Ultrasphere C18 column (0.2×25 cm) and eluted with a 1%/min linear gradient of aqueous 0.1% TFA/CH3CN ([…]) at a flow rate of 1 ml/min. The collected peptides were characterized by mass spectrometry and amino acid composition, which was also used to quantitate the amount of various substrates and products. The digestions of the quenched fluorogenic peptides were analyzed by RP-HPLC using a dual UV (210 nm) and fluorescence (excitation and emission wavelengths of 320 and 420 nm, respectively) detector (Rainin).\nKm(app), Vmax(app) and Ki(app) determinations—Following digestion reactions with increasing substrate concentrations, the products were separated by RP-HPLC. The rate of substrate hydrolysis was obtained from the integrated peak areas of the chromatograms. […] For the two quenched peptides, kinetic parameters were determined as described (17)."}, "[4]": {"target": "T4, SKI-1 protease (Homo sapiens, UniProt Q14703)", "T4 construct": "endogenous in cells; the enzyme itself is not transfected", "T4 sequence (Q14703 187-1052)": "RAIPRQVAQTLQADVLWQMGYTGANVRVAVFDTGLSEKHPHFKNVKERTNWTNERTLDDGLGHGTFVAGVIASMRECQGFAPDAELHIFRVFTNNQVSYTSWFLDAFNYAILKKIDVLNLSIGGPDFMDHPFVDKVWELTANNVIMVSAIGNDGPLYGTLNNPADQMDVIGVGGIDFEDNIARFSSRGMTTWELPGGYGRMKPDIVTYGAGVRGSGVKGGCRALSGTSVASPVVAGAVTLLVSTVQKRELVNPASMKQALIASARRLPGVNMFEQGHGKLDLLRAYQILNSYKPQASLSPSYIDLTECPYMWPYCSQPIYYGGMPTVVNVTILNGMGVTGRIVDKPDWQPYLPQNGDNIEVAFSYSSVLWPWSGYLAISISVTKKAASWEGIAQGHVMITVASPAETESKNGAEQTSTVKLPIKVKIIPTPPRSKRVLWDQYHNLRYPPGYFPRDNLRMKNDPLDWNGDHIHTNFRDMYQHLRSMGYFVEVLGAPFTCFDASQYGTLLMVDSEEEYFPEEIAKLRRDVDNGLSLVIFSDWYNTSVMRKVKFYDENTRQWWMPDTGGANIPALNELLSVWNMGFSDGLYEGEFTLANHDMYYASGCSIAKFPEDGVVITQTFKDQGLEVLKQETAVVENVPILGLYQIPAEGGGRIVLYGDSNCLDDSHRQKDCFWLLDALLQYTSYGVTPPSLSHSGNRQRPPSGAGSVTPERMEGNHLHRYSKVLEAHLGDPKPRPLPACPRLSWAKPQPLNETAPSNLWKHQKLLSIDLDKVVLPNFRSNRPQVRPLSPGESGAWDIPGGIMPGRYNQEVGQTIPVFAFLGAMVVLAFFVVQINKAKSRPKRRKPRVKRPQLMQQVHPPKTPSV", "assay": "SREBP-1 processing in stable HK293 cell lines overexpressing ProSKI-1 and SREBP-1 (immunoblot)", "format": "cell-based", "method": "Cell Culture: HK293 cells were maintained as monolayers in Dulbecco's modified Eagle's medium containing 100 units/ml penicillin and 100 μg/ml streptomycin sulfate (medium A) supplemented with 10% fetal calf serum. 24 hours before RNA and protein extractions medium A was supplemented with 5% lipoprotein deficient serum, 50 μM mevalonate (Sigma), 50 μM compactin (Sigma) and with no sterols or 1 μg/ml of 25-hydroxy-cholesterol and 10 μg/ml of cholesterol. 4 hours before protein extraction 25 μg/ml N-acetyl-leucinyl—leucinyl norleucinal was added. Total RNA was isolated with Trizol (Gibco BRL) reagent according to the instructions of the manufacturer. In order to extract proteins cells were washed and collected in PBS with protease inhibitors ( ). After addition of buffer A (Triton×100 1%,50 mM tris maleate, 2 mM CaCl2, inhibitor coctail ( ), and ALLN) cells were mixed with pipette and allowed to swell on ice for 20 minutes Then the solution was centrifuged for 5 minutes at 15, 000 rpm and supernatants representing membrane proteins were collected and stored until analyzed at −70° C. […]\nTransfections: HK293 cells were plated at a density of 5×10^5 /60 mm dish in medium A with 10% fetal calf serum and were cultured until they were 40–60% confluent. […] Colonies were isolated and formed stable cell lines were analyzed by immunoblotting with ProSKI-1 and SREBP-1 antibodies. […]"}, "[5]": {"target": "furin (Homo sapiens, UniProt P09958)", "sequence (P09958 108-794, species assumed)": "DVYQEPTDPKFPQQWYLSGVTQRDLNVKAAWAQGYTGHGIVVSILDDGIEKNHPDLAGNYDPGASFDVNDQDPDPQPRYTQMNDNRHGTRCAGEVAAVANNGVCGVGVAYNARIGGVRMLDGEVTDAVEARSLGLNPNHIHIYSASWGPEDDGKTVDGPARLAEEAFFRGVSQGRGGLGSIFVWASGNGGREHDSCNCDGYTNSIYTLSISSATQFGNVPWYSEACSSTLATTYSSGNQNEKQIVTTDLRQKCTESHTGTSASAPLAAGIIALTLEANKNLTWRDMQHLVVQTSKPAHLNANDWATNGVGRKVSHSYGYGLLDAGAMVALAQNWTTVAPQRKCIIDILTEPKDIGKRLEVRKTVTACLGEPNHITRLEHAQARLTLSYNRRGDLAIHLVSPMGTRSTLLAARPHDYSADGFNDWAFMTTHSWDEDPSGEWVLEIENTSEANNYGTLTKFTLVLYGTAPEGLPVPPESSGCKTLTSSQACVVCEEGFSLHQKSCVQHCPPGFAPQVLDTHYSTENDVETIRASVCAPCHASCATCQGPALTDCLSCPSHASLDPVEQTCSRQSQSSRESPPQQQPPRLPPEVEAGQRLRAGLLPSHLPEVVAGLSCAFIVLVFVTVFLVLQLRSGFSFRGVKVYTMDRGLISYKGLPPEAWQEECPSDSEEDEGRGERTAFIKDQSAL", "assay": "Specificity of ProSKI-1: processing of neurotrophin-3 (NT-3), a substrate not processed by SKI-1", "format": "cell-based"}, "[6]": {"tested_on": "SREBP mediated transcription", "assay": "SREBP target gene mRNA in HK293 cells overexpressing ProSKI-1 and SREBP-1 (Northern blot)", "format": "cell-based, human", "method": "Cell Culture: […] Total RNA was isolated with Trizol (Gibco BRL) reagent according to the instructions of the manufacturer. In order to extract proteins cells were washed and collected in PBS with protease inhibitors ( ). […] Samples were shaken at 4 C for 1 hour and centrifuged and the supernatant was frozen in aliquots at -70° C. Transfections: […] On day two medium containing appropriate selection agents (800 μg/ml Geneticin for pcDNA3neo, […] Zeocin for pcDNA3zeo) were added. The medium was changed every two days until defined colonies were evident. Colonies were isolated and formed stable cell lines were analyzed by immunoblotting with ProSKI-1 and SREBP-1 antibodies. […] After transfer filters were crosslinked by UV irradiation in a Stratalinker (Stratagene). Filters were prehydridized at 42° C. for 1 hour and hybridized with random labeled ^32P cDNA probes for 16-20 hours. UltrahybTM buffer (Ambion) was used. After hybridization filters were washed and exposed to film for indicated time and bands were quantified by densitometry. Primer pairs were used to clone cDNA probes: HMG CoA reductase [[NT] ID NO: 21)] [[NT] ID NO: 22)], farnesyl diphosphate [[NT] ID NO: 23)], [[NT] ID NO: 24)], Fatty acid synthase [[NT] ID NO: 25)], [[NT] ID NO: 26)], Acetyl CoA carboxylase [[NT] ID NO: 27)], [5' [NT]3 (SEQ ID NO: 28)], SREBP-1 [[NT] ID NO: 29)], [[NT] ID NO: 30)]. […]"}},
  "data": [
    {"molecule": "O=C(O)CN(CCN(CC(=O)O)CC(=O)O)CC(=O)O", "note": "[EDTA]", "values": [
      {"measurement": "Hydrolysis of SREBP-2 peptide (% of control)", "setting": "[1]", "value": "0 % of control"},
      {"measurement": "inhibition of the processing of proBDNF by SKI-1", "setting": "[2]", "value": "effectively inhibit"},
      {"measurement": "cleavage of quenched fluorogenic peptide at the RSLK↓ site", "setting": "[3]", "value": "completely abolished"}
    ]},
    {"molecule": "ProSKI-1: the 188 amino acids that make up the signal peptide and the prosegment of SKI-1, expressed in HK293 cells (protein) GKKHLGDRLEKKSFEKAPCPGCSHLTLKVEFSSTVVEYEYIVAFNGYFTAKARNSFISSALKSSEVDNWRIIPRNNPSSDYPSDFEVIQIKEKQKAGLLTLEDHPNIKRVTPQRKVFRSLKYAESDPTVPCNETRWSQKWQSSRPLRRASLSLGSGFWHATGRHSSRRLLRA", "values": [
      {"measurement": "processing of cytoplasmic proSREBP-1 into intermediate form(s)", "setting": "[4]; HK293 cell lines overexpressing SREBP-1 together with ProSKI-1", "value": "formation of the intermediate form(s) of SREBP-1 was abolished"},
      {"measurement": "nuclear SREBP-1", "setting": "[4]; HK293 nuclear extracts, absence of sterols", "value": "Only minute amounts of nuclear SREBPs were detected"},
      {"measurement": "level and furin-derived processing of NT-3", "setting": "[5]", "value": "unaffected"},
      {"measurement": "mRNA levels of LDL-receptor, HMG-CoA reductase, farnesyl diphosphate and fatty acid synthase", "setting": "[6]; HK293 cells, with and without lipids, early passages of previously frozen cell lines", "value": "greatly reduced"},
      {"measurement": "target gene mRNA levels", "setting": "[6]; same clones kept in culture for further passages", "value": "normal or even higher than in control cells"}
    ]}
  ]
}
